Results as given in patent US20090082262A1 (published 2009).
*: point of attachment. Nonanoyl = CCCCCCCCC(=O)*

B1: HCC-1[11-74] (ligand)
chain: YHPSECCFTYTTYKIPRQRIMDYYETNSQCSKPGIVFITKRGHSVCTNPSDKWVQDYIKDMKEN
B2: RANTES (ligand)
chain: SPYSSDTTPCCFAYIARPLPRAHIKEYFYTSGKCSNPAVVFVTRKNRQVCANPEKKWVREYINSLEMS
B3: HCC-1[10-74] (ligand)
chain: PYHPSECCFTYTTYKIPRQRIMDYYETNSQCSKPGIVFITKRGHSVCTNPSDKWVQDYIKDMKEN
B4: PHC-1 (HCC-1[9-74]) (ligand)
chain: GPYHPSECCFTYTTYKIPRQRIMDYYETNSQCSKPGIVFITKRGHSVCTNPSDKWVQDYIKDMKEN
B5: HCC-1[12-74] (protein)
chain: HPSECCFTYTTYKIPRQRIMDYYETNSQCSKPGIVFITKRGHSVCTNPSDKWVQDYIKDMKEN
B6: HCC-1[8-74] (ligand)
chain: RGPYHPSECCFTYTTYKIPRQRIMDYYETNSQCSKPGIVFITKRGHSVCTNPSDKWVQDYIKDMKEN
B7: HCC-1, residues 6-74 (ligand)
chain: SSRGPYHPSECCFTYTTYKIPRQRIMDYYETNSQCSKPGIVFITKRGHSVCTNPSDKWVQDYIKDMKEN
B8: HCC-1[7-74] (ligand)
chain: SRGPYHPSECCFTYTTYKIPRQRIMDYYETNSQCSKPGIVFITKRGHSVCTNPSDKWVQDYIKDMKEN
B9: NNY-HCC-1[10-74] (ligand)
chain: Nonanoyl-PYHPSECCFTYTTYKIPRQRIMDYYETNSQCSKPGIVFITKRGHSVCTNPSDKWVQDYIKDMKEN
modifications: ends and bridges not checked

Molecular target: T1, chemokine receptor 1 (CCR1) (UniProt P56482 1-355)
T1 chain: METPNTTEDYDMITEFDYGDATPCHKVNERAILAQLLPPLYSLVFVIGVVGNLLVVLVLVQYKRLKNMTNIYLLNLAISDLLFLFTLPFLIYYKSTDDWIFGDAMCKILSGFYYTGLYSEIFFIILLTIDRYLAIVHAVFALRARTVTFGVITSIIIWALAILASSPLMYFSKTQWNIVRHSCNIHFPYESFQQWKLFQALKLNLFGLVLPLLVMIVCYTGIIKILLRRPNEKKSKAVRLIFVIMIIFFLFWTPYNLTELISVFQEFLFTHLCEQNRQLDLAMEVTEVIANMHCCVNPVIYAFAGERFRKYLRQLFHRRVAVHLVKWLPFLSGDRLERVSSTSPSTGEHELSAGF
Assay: competition binding

Binder | IC50 [nM]
B1 | 5.07
B2 | 0.166
B3 | 0.182
B4 | 0.104
B5 | 50.1
B6 | 2.42
B7 | 6.52
B8 | 4.36
B9 | 0.0843
